Changes are numbered by the printed parent chain. Numbers in names are those of the source. Values belong to the binder of their own block, whether it stands above or below them.
What was measured:
LINGO-Fc [1] = biological target: T1, LINGO-Fc (human, UniProt Q96FE5 40-538, limits assumed); test: direct ELISA on LINGO-Fc; OD450 at saturation relative to Li33;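 further: binding to plate-coated LINGO-Fc read by OD450, with the value at maximal saturation divided by the corresponding Li33 value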
T1 construct: not shown: Fc part
T1 sequence: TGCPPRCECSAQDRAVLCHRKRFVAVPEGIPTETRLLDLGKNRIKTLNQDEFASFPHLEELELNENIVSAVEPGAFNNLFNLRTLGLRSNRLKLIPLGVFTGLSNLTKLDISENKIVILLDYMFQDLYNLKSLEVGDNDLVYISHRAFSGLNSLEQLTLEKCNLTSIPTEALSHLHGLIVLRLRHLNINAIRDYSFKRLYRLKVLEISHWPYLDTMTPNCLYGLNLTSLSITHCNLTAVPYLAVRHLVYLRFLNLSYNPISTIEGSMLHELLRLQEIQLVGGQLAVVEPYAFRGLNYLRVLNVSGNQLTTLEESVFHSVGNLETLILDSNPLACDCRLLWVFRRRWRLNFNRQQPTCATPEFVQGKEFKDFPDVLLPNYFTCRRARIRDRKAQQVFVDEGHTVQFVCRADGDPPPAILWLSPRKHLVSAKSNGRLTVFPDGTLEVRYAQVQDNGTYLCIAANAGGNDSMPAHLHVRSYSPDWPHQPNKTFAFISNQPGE

LINGO-Fc [2] = biological target: T1, LINGO-Fc; test: direct ELISA on LINGO-Fc; half-maximal concentration relative to Li33;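 further: direct binding ELISA on plates coated with LINGO-Fc, concentration giving half of saturating binding, expressed as a ratio to the same value for the comparator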
[3] = biological target: T2, human Fc receptor CD16-GST fusion protein (human, UniProt P08637 17-208); test: ALPHA competition vs biotinylated wild-type IgG1; receptor-GST
T2 construct: not shown: GST

[4] = biological target: T3, human Fc receptor CD32a-GST fusion protein (human, UniProt P12318 34-217); test: as above
T3 construct: not shown: GST
T3 sequence (looked up): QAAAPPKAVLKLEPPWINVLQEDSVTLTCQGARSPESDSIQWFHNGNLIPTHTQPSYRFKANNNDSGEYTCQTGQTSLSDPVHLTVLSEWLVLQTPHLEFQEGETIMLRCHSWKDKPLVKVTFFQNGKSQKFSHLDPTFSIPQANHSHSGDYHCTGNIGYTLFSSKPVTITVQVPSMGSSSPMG

[5] = biological target: T4, human Fc receptor CD32b-GST fusion protein (human, UniProt P31994 43-217); test: as above
T4 construct: not shown: GST
T4 sequence (looked up): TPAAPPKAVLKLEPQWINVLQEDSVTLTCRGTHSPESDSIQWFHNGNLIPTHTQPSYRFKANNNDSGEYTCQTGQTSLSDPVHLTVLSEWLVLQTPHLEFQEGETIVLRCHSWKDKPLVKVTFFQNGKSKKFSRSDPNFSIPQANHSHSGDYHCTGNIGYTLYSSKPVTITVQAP

[6] = biological target: T2, human Fc receptor CD16-GST fusion …; test: ALPHA competition vs biotinylated wild-type IgG1; relative to wt
[7] = biological target: T3, human Fc receptor CD32a-GST fusion …; test: as above
[8] = biological target: T4, human Fc receptor CD32b-GST fusion …; test: as above
[9] = biological target: T5, human Fc receptor CD64-GST fusion protein (human, UniProt P12314 16-292, limits assumed); test: as above
T5 construct: not shown: GST

B1: Li33 variant W104L (SEQ ID NO:177) (antibody, V domains shown)
VH: EVQLLESGGGLVQPGGSLRLSCAASGFTFSIYPMFWVRQAPGKGLEWVSWIGPSGGITKYADSVKGRFTISRDNSKNTLYLQMNSLRAEDTATYYCAREGHNDLYFDLWGRGTLVTVSS
VL: DIQMTQSPGTLSLSPGERATLSCRASQSVSSYLAWYQQKPGQAPRLLIYDASNRATGIPARFSGSGSGTEFTLTISSLQSEDFAVYYCQQYDKWPLTFGGGTKVEIKR
notes: unchanged chain from WT Li33
Plateau Ratio (LINGO-Fc [1]): 0.69 ratio
ELISA Ratio (LINGO-Fc [2]): 2.5 ratio

B3: Li33 variant W104Q (SEQ ID NO:158) (antibody, V domains shown)
VH: B1 VH with L104Q
VL: B1 VL
notes: unchanged chain from WT Li33
Plateau Ratio (LINGO-Fc [1]): 0.91 ratio
ELISA Ratio (LINGO-Fc [2]): 2.4 ratio

B4: Li33 variant W104V (SEQ ID NO:155) (antibody, V domains shown)
VH: B1 VH with L104V
VL: B1 VL
notes: unchanged chain from WT Li33
Plateau Ratio (LINGO-Fc [1]): 0.94 ratio
ELISA Ratio (LINGO-Fc [2]): 2.8 ratio

B6: Li33 variant W104S (SEQ ID NO:157) (antibody, V domains shown)
VH: B1 VH with L104S
VL: B1 VL
notes: unchanged chain from WT Li33
Plateau Ratio (LINGO-Fc [1]): 0.85 ratio
ELISA Ratio (LINGO-Fc [2]): 2.7 ratio

Now from value to binder:

Plateau Ratio (LINGO-Fc [1]): 0.33 ratio
ELISA Ratio (LINGO-Fc [2]): 3.5 ratio
B2: Li33 variant W104T (SEQ ID NO:178) (antibody, V domains shown)
VH: B1 VH with L104T
VL: B1 VL
notes: unchanged chain from WT Li33

Plateau Ratio (LINGO-Fc [1]): 0.67 ratio
ELISA Ratio (LINGO-Fc [2]): 1.1 ratio
B5: Li33 variant W104Q (SEQ ID NO:187) (antibody, V domains shown)
VH: B1 VH with L104Q
VL: B1 VL
notes: unchanged chain from WT Li33

Plateau Ratio (LINGO-Fc [1]): 0.88 ratio
ELISA Ratio (LINGO-Fc [2]): 3.8 ratio
B7: Li33 variant W104M (SEQ ID NO:176) (antibody, V domains shown)
VH: B1 VH with L104M
VL: B1 VL
notes: unchanged chain from WT Li33

IC50 [3]: 179 µg/mL
IC50 [4]: 365 µg/mL
IC50 [5]: 350 µg/mL
fold decrease from wt [6]: 50 fold
fold decrease from wt [7]: 60 fold
fold decrease from wt [8]: 15 fold
fold decrease from wt [9]: > 100 fold
B8: Li81 (agly) (antibody, human IgG1)
heavy: not shown
VL: DIQMTQSPATLSLSPGERATLSCRASQSVSSYLAWYQQKPGQAPRLLIYDASNRATGIPARFSGSGSGTDFTLTISSLEPEDFAVYYCQQRSNWPMYTFGQGTKLEIK
notes: Aglycosylated fully human IgG1 (single T to A change in the heavy chain); also called Li81 Ig1agly; Li81 Mab; copies: 2 + 2
